Experimental data as given in patent US20140286957A1 (Teva, published 2014).
Like-named read-outs stand apart in the source and are kept apart here. One block for each binder: values may come before it.

Experiments:
Human CD1d/β2M [1] = target: T1, Human CD1d/β2M (human, UniProt P15813 20-301; P61769 21-119); assay: SPR
T1 construct: also called hCD1d; recombinant human CD1d

Human CD1d on cells [2] = target: T2, Human CD1d on cells (human, UniProt P15813 20-335); assay: cell-based or functional assay
T2 sequence (looked up): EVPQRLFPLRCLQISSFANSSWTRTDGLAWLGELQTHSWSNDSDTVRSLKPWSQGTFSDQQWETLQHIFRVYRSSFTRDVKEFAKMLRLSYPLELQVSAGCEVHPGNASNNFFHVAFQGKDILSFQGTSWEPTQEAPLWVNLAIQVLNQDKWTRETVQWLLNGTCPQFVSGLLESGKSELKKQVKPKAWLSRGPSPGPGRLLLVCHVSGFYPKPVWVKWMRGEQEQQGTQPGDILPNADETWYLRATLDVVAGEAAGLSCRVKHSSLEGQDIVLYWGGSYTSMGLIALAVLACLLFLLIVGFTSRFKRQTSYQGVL

Human CD1d on cells [3] = target: T2, Human CD1d on cells; assay: cell-based or functional assay; remark: listed apart in the source
Human CD1d on cells [4] = target: T2, Human CD1d on cells; assay: cell-based or functional assay; remark: listed apart in the source
Human CD1d on cells [5] = target: T2, Human CD1d on cells; assay: cell-based or functional assay; remark: listed apart in the source
Human CD1d on cells [6] = target: T2, Human CD1d on cells; assay: cell-based or functional assay; remark: listed apart in the source
Human CD1d on cells [7] = target: T2, Human CD1d on cells; assay: cell-based or functional assay; remark: listed apart in the source
Human CD1d on cells [8] = target: T2, Human CD1d on cells; assay: cell-based or functional assay; remark: listed apart in the source
Human CD1d/β2M [9] = target: T1, Human CD1d/β2M; assay: direct ELISA, plate coated with 1 µg/mL CD1d construct, HRP anti-human IgG (H+L) detection
Mouse CD1d [10] = target: T3, Mouse CD1d (mouse, UniProt P11609 22-305); assay: as above
T3 construct: Murine CD1d extracellular domain construct, HEK-293E; also called mCD1d; murine CD1d
T3 sequence: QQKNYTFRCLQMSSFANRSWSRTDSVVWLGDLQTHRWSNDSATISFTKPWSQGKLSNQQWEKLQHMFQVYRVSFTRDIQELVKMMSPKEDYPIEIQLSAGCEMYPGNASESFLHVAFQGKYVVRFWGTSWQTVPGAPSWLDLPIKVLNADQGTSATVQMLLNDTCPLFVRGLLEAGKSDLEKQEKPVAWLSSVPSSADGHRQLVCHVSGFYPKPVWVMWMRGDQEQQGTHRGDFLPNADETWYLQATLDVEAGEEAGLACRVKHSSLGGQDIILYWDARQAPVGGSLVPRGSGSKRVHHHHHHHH

mCD1dhu [11] = target: T4, mCD1dhu (mouse with human segments); assay: as above
T4 chain: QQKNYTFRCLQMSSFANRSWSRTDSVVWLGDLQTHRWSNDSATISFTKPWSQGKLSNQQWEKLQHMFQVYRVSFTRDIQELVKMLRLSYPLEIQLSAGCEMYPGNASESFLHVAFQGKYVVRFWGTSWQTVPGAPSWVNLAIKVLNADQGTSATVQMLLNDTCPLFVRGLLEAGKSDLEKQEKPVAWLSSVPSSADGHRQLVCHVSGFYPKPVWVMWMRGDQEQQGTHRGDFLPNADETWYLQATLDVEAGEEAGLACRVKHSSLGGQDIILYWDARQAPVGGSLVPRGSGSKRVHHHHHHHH

Human CD1d on cells [12] = target: T2, Human CD1d on cells; assay: cell-based or functional assay; remark: listed apart in the source
Human CD1d on cells [13] = target: T2, Human CD1d on cells; assay: cell-based or functional assay; remark: listed apart in the source
Human CD1d on cells [14] = target: T2, Human CD1d on cells; assay: cell-based or functional assay; remark: listed apart in the source
Human CD1d on cells [15] = target: T2, Human CD1d on cells; assay: cell-based or functional assay; remark: listed apart in the source
Human CD1d/β2M [16] = target: T1, Human CD1d/β2M; assay: SPR, Protein A purified IgG
Human CD1d/β2M [17] = target: T1, Human CD1d/β2M; assay: SPR, IgG captured, CD1d/β2M analyte
Description: Purified antibodies were also subjected to full kinetic characterization using a BIACORE™ T100 biosensor (GE Healthcare). Approximately 10,000 RU of anti-human IgG (Invitrogen cat# H10500) was immobilized on a CM5 Series S Sensor chip, using standard amine coupling chemistry in flow cell (FC) 1 and FC2 (or alternatively FC3 and FC4) of the BIACORE™ T100 Biosensor. The running buffer used was HBS-EP-1-(GE Healthcare) and interactions measured at 25° C. Peak purified IgGs were diluted to 10 nM in running buffer, and captured on FC2 (or alternatively FC4) at a flow rate of 10 μL/min in order to capture 50-80 RU of IgG. […] The contact time for association was 120 sec and dissociation measured for 20 mins for the highest concentration and 240 sec for all other concentrations in the series. The sensorgram data from FC2 was subtracted from FC1 and a buffer only control.

[18] = target: T5, CD1d tetramer loaded with α-GalCer (ProImmune) (UniProt P15813 20-301, limits assumed); assay: flow cytometry, inhibition of CD1d tetramer (10 nM) binding to NKTCR on J.RT3-T3.5 cells
T5 construct: Bought reagent; also called fluorochrome-conjugated CD1d tetramer
T5 sequence (looked up): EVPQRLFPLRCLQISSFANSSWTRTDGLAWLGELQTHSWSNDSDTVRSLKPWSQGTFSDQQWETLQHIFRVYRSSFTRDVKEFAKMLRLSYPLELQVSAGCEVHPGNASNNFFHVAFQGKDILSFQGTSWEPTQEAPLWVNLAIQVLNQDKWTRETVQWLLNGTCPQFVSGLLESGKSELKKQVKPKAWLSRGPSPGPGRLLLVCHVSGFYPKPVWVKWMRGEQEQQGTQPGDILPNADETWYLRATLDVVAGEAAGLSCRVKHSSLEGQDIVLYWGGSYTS
Description: To perform the assay, antibodies were prepared at decreasing concentrations from 10 μg/mL in 0.1% bovine serum albumin (BSA) in cold 1×PBS at pH 7.4. […] Wash steps were done in 0.1% BSA in 1×PBS. Data were acquired by flow cytometry and analyzed using flow cytometry analysis software (FlowJo® Treestar, Inc.).

[19] = target: Cynomolgus macaque CD1d on cells (cynomolgus macaque); assay: flow cytometry, biotinylated antibody and streptavidin-PE on cynomolgus PBMC, gated live cells
Human CD1d/β2M [20] = target: T1, Human CD1d/β2M; assay: direct ELISA, plate coated with 1 µg/mL CD1d construct, HRP anti-human IgG (H+L) detection; remark: listed apart in the source
Mouse CD1d [21] = target: T3, Mouse CD1d; assay: as above; remark: listed apart in the source
mCD1dhu [22] = target: T4, mCD1dhu; assay: as above
hCD1dmu = target: T6, hCD1dmu (human with mouse segments); assay: as above
T6 chain: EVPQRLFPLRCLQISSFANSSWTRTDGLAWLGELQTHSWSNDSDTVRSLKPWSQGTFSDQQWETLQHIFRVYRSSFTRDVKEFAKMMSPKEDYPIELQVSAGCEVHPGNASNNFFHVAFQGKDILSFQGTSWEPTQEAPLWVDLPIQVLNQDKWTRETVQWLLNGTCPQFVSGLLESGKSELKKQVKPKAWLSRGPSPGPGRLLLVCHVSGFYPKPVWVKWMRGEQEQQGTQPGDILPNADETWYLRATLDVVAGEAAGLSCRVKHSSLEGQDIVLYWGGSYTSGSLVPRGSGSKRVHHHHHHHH

Kd (Human CD1d/β2M [1]): 189 pM | fold improvement against 401.11 (IFN-γ, moDC) (Human CD1d on cells [2]): ~4.8 fold | fold potency against antibody 42 (C24:1 βGluCer) (Human CD1d on cells [2]): ≤ 216 fold | fold potency against antibody 51.1 (C24:1 βGluCer) (Human CD1d on cells [2]): ≤ 175 fold | NKT IL-4 EC50 (moDC) (Human CD1d on cells [3]): 0.58 ng/mL | NKT IL-13 EC50 (moDC) (Human CD1d on cells [3]): 3.84 ng/mL | NKT IFN-γ EC50 (moDC) (Human CD1d on cells [4]): 8.16 ng/mL | NKT IL-4 EC50 (moDC) (Human CD1d on cells [4]): 2.19 ng/mL | NKT IL-5 EC50 (moDC) (Human CD1d on cells [4]): 6.13 ng/mL | NKT IL-13 EC50 (moDC) (Human CD1d on cells [4]): 9.82 ng/mL | NKT TNF EC50 (moDC) (Human CD1d on cells [4]): 4.3 ng/mL | NKT IFN-γ EC50 (THP-1) (Human CD1d on cells [5]): 6.4 ng/mL | NKT IL-4 EC50 (THP-1) (Human CD1d on cells [5]): 2.66 ng/mL | NKT IL-5 EC50 (THP-1) (Human CD1d on cells [5]): 4.5 ng/mL | NKT IL-13 EC50 (THP-1) (Human CD1d on cells [5]): 7.78 ng/mL | NKT TNF EC50 (THP-1) (Human CD1d on cells [5]): 4.14 ng/mL | NKT IFN-γ EC50 (moDC) (Human CD1d on cells [6]): 2.8 ng/mL | NKT IL-4 EC50 (moDC) (Human CD1d on cells [6]): 0.432 ng/mL | NKT IL-5 EC50 (moDC) (Human CD1d on cells [6]): 0.704 ng/mL | NKT IL-13 EC50 (moDC) (Human CD1d on cells [6]): 0.598 ng/mL | NKT IFN-γ EC50 (THP-1) (Human CD1d on cells [7]): 2.6 ng/mL | NKT IFN-γ EC50 (moDC) (Human CD1d on cells [7]): 3 ng/mL | NKT IL-4 EC50 (THP-1) (Human CD1d on cells [7]): 2.2 ng/mL | NKT IL-4 EC50 (moDC) (Human CD1d on cells [7]): 1.16 ng/mL | NKT IL-13 EC50 (THP-1) (Human CD1d on cells [7]): 4.35 ng/mL | IFN-γ EC50 (C24:1 βGluCer, moDC) (Human CD1d on cells [8]): 0.64 ng/mL | IL-4 EC50 (C24:1 βGluCer, moDC) (Human CD1d on cells [8]): 0.682 ng/mL | IL-5 EC50 (C24:1 βGluCer, moDC) (Human CD1d on cells [8]): 0.868 ng/mL | IL-13 EC50 (C24:1 βGluCer, moDC) (Human CD1d on cells [8]): 1.44 ng/mL | TNF-α EC50 (C24:1 βGluCer, moDC) (Human CD1d on cells [8]): 0.842 ng/mL | EC50 (read off the curve) (Human CD1d/β2M [9]): ~8 ng/mL | binding result (Mouse CD1d [10]): no binding | EC50 (read off the curve) (mCD1dhu [11]): ~100 ng/mL
B1: 401.11.158 (antibody, V domains shown)
VH: QVQLVGSGGGLVKPGRSLRLSCAASGFTFDDYAMHWVRQAPGKGLEWVATIIWNSAIIGYADSVKGRFIVSRDNAKNSLYLQMNSLRAEDTALYYCAKDMCSSGGCPDGYFDSWGQGTLVTVSS
VL: DIQMTQSPSSVSASVGDRVTITCRASQHISSWLAWYQQKPGKAPKLLIYAASSLQSGVPSRFSGSGSGTDFTLTISSLQPEDFATYYCQQANRFPLTFGGGTKLEIKR
notes: IgG4 (S228P); biotinylated or Pacific Blue labelled in some assays

fold potency against 51.1, IL-2 release (Human CD1d on cells [2]): ~17 fold | fold potency against antibody 42 (C24:1 βGluCer) (Human CD1d on cells [2]): ≤ 139 fold | fold potency against antibody 42 (THP-1 assay) (Human CD1d on cells [2]): ≤ 180 fold | fold potency against antibody 42 (moDC assay) (Human CD1d on cells [2]): ≤ 50 fold | fold potency against antibody 42, IL-2 release (Human CD1d on cells [2]): ~25 fold | fold potency against antibody 51.1 (C24:1 βGluCer) (Human CD1d on cells [2]): ≤ 112 fold | IL-2 release EC50 (U-937 + NKTCR cell line) (Human CD1d on cells [12]): 4.5 ng/mL | IFN-γ EC50 (THP-1) (Human CD1d on cells [13]): 2.4 ng/mL | IL-4 EC50 (THP-1) (Human CD1d on cells [13]): 1.7 ng/mL | IL-5 EC50 (THP-1) (Human CD1d on cells [13]): 1.2 ng/mL | IL-13 EC50 (THP-1) (Human CD1d on cells [13]): 1.5 ng/mL | IFN-γ EC50 (primary CD14+ cells) (Human CD1d on cells [14]): 28.6 ng/mL | IL-4 EC50 (primary CD14+ cells) (Human CD1d on cells [14]): 4 ng/mL | IL-5 EC50 (primary CD14+ cells) (Human CD1d on cells [14]): 6.9 ng/mL | IL-13 EC50 (primary CD14+ cells) (Human CD1d on cells [14]): 39.9 ng/mL | NKT IFN-γ EC50 (moDC) (Human CD1d on cells [15]): 0.105 ng/mL | NKT IL-13 EC50 (moDC) (Human CD1d on cells [15]): 0.154 ng/mL | IFN-γ EC50 (C24:1 βGluCer, moDC) (Human CD1d on cells [8]): 0.995 ng/mL | IL-4 EC50 (C24:1 βGluCer, moDC) (Human CD1d on cells [8]): 0.636 ng/mL | IL-5 EC50 (C24:1 βGluCer, moDC) (Human CD1d on cells [8]): 0.929 ng/mL | IL-13 EC50 (C24:1 βGluCer, moDC) (Human CD1d on cells [8]): 2.94 ng/mL | TNF-α EC50 (C24:1 βGluCer, moDC) (Human CD1d on cells [8]): 1.51 ng/mL | Kd (Human CD1d/β2M [16]): 145 pM | Kd (Human CD1d/β2M [17]): 304 pM | koff (Human CD1d/β2M [17]): 0.000161 s⁻¹ | kon (Human CD1d/β2M [17]): 530000 M⁻¹ s⁻¹ | EC50 [18]: 165 ng/mL | percent CD1d-positive cells, Donor 1 [19]: 81.3% | percent CD1d-positive cells, Donor 2 [19]: 64% | EC50 (read off the curve) (Human CD1d/β2M [20]): ~6 ng/mL | binding result (Mouse CD1d [21]): no binding (tested: 10 µg/mL) | EC50 (read off the curve) (mCD1dhu [22]): ~5 ng/mL | binding result (hCD1dmu): no binding (tested: 10 µg/mL)
B2: 402.8 (antibody, V domains shown)
VH: QVQLQESGPGLVRPSETLSLTCAVYGGSFSGYYWSWIRQPPGKGLEWIGEINHSGSTNYNPSLKSRVTISVDTSKNQFSLKLSSVTAADTAVYYCARGEIYDFWNSYMDVWGKGTTVTVSS
VL: QTVVTQEPSLTVSPGGTVTLTCASSSGAVSSGNFPNWFQQKPGQAPRALIFSASNKHSWTPARFSGSLLGGKAVLTLSGVQPEDEAEYYCLLYFGDTQLGVFGGGTKVTVLG
notes: Human IgG4 (S228P); biotinylated or Pacific Blue labelled in some assays
